B1: Rat recombinant BSP (rBSP) (other)
chain: FSMKNFHRRIKAEDSEENGVFKYRPRYFLYKHATYFYPPLKRFPVQGGSDSSEENGDGDSSEEEGEEEETSNEEENNEDSEGNEDQEAEAENATLSGVTASYGVETTADAGKLELAALQLPKKAGDAEGKAPKMKESDEEEEEEEEEENENEEAEVDENEQVVNGTSTNSTEVDGGNGPSGGDNGEEAEEASVTEAGAEGTTAGVRELTSYGTTTAVLLNGFQQTTPPPEAYGTTSPPARKSSTVEYGEEYEQIGNEYNTAYETYDENNGEPRGDTYRAYEDEYSYYKGHGYEGYEGQDYYYHQ
modifications: biotinylated with Sulfo-NHS-Biotin where used as the labelled protein in competition assays

Columns and labels:
[1] = target: T1, Rat tail tendon type I collagen (rat, UniProt P02454 152-1207; P02466 86-1125); test: solid-phase collagen-binding assay, anti-His detection, one-site binding model
T1 sequence (P02454 152-1207 limits assumed, chain 1 of 2): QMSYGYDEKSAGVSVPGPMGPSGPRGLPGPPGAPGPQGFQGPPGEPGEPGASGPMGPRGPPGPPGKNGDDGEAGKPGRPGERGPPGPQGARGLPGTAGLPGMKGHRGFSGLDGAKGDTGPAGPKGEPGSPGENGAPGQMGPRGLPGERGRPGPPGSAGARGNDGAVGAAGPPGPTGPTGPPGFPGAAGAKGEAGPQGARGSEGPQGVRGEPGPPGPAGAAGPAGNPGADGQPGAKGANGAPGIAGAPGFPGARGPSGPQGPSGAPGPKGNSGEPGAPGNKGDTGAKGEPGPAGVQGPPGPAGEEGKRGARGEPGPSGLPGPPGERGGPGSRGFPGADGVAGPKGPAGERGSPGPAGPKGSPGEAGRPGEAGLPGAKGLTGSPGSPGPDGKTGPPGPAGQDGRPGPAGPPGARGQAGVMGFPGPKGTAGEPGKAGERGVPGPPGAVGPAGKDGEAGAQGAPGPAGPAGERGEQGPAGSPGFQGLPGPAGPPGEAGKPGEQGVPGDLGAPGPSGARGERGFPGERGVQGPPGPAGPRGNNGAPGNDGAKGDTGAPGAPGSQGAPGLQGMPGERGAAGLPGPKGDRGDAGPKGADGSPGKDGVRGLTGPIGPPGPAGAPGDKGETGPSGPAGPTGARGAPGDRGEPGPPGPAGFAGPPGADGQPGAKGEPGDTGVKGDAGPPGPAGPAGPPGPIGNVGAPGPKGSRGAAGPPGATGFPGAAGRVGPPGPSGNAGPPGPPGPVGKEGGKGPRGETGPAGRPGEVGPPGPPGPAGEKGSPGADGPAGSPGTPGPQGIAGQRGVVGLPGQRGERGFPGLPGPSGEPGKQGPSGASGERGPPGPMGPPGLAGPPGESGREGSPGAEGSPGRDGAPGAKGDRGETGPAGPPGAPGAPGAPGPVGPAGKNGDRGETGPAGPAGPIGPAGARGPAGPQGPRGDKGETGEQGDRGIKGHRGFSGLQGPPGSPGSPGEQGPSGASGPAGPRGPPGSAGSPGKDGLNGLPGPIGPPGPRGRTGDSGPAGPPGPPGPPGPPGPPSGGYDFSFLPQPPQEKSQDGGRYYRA
T1 sequence (P02466 86-1125 limits assumed, chain 2 of 2): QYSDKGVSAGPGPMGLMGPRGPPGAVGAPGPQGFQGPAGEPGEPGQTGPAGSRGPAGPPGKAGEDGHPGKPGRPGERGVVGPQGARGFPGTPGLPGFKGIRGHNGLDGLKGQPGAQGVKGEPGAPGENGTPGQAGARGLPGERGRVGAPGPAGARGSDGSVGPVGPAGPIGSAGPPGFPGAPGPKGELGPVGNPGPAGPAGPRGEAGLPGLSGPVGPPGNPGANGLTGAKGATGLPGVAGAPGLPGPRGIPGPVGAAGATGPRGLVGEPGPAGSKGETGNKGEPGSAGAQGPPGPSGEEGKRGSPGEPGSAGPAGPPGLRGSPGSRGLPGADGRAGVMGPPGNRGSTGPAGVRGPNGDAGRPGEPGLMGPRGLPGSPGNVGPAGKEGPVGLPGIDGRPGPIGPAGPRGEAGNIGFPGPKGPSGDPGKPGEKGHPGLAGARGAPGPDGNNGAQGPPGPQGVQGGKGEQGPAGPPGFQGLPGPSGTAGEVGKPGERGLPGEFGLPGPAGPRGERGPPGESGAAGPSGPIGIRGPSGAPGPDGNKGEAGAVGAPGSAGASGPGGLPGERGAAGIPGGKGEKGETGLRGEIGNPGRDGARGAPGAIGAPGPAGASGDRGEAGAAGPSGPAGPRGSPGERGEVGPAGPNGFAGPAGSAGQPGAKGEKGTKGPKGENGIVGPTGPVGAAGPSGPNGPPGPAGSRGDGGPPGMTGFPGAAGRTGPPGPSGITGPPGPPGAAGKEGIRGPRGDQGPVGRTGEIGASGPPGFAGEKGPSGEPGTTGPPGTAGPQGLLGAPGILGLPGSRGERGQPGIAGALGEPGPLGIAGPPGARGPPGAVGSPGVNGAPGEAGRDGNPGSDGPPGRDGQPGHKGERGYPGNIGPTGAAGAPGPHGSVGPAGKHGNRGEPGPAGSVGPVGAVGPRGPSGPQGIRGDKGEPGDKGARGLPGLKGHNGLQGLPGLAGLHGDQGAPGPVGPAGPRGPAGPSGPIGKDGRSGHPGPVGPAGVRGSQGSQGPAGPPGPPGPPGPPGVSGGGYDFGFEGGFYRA

[2] = target: T1, Rat tail tendon type I collagen; test: cell-based or functional assay

| Molecule | Kd [1] [nM] | nucleating activity of rBSP in a collagen scaffold (hydroxyapatite nucleation) [2] [nmol] |
| --- | --- | --- |
| rBSP(1-75) (from UniProt P13839 1-75) (peptide) | 4.04 | – |
| rBSP(1-100) (from UniProt P13839 1-100) (peptide) | 5.64 | – |
| rBSP(19-100) (from UniProt P13839 19-100) (peptide) | 50.3 | – |
| B1 | 22.9 | 0.025 |

— patent publication US20090005298A1 (published 2009)
